Measurements reported in paper PMC9119546, “MDM2 E3 ligase activity is essential for p53 regulation and cell cycle integrity” (PLoS Genetics, 2022).

Assays:
[1] = target: T1, HA-HDM2 (human, recombinant, wild type) (human, UniProt Q00987 1-491); test: pull-down; 500 ng FLAG-MDM4 with 500 ng HA-HDM2 or HA-HDM2L468A in NP40 buffer (20 mM Tris-HCl pH 8.0, 150 mM NaCl, 0.5% NP40); anti-FLAG M2 beads, 1 hour at room temperature; eluted with 3xFLAG peptide; blot for HA; conditions: both partners purified
T1 construct: human MDM2 (HDM2); also called HA-HDM2 (WT); HA-MDM2 (human); source: insect cell expression, purified as described previously [13]; not shown: HA, N-terminal, kept
T1 sequence (Q00987 whole entry): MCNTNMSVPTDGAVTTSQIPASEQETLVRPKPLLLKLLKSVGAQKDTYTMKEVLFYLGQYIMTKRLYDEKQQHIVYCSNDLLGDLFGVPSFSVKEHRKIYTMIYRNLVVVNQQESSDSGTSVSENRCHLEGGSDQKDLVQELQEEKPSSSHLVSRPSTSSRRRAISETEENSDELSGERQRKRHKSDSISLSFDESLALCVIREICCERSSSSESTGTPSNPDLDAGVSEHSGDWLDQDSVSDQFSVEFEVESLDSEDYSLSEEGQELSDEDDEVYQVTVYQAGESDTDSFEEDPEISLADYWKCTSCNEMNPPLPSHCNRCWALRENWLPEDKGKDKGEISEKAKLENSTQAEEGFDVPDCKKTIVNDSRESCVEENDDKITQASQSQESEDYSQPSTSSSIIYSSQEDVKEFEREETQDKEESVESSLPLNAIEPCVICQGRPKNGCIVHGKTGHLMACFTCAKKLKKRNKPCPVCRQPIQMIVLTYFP

[2] = target: T2, HA-HDM2L468A (human, recombinant) (human, UniProt Q00987 1-491, L468A); test: as above; conditions: both partners purified
T2 construct: human MDM2 (HDM2) with L468A; also called HA-HDM2LA; mutant HDM2 (HA-HDM2L468A); source: insect cell expression, purified as described previously [13]; not shown: HA, N-terminal, kept
T2 sequence (Q00987 whole entry L468A): as the sequence (Q00987 whole entry) above, with L468A counted along it

B1: human recombinant FLAG-MDM4 (natural protein, UniProt O15151 1-490, looked up)
chain: MTSFSTSAQCSTSDSACRISPGQINQVRPKLPLLKILHAAGAQGEMFTVKEVMHYLGQYIMVKQLYDQQEQHMVYCGGDLLGELLGRQSFSVKDPSPLYDMLRKNLVTLATATTDAAQTLALAQDHSMDIPSQDQLKQSAEESSTSRKRTTEDDIPTLPTSEHKCIHSREDEDLIENLAQDETSRLDLGFEEWDVAGLPWWFLGNLRSNYTPRSNGSTDLQTNQDVGTAIVSDTTDDLWFLNESVSEQLGVGIKVEAADTEQTSEEVGKVSDKKVIEVGKNDDLEDSKSLSDDTDVEVTSEDEWQCTECKKFNSPSKRYCFRCWALRKDWYSDCSKLTHSLSTSDITAIPEKENEGNDVPDCRRTISAPVVRPKDAYIKKENSKLFDPCNSVEFLDLAHSSESQETISSMGEQLDNLSEQRTDTENMEDCQNLLKPCSLCEKRPRDGNIIHGRTGHLVTCFHCARRLKKAGASCPICKKEIQLVIKVFIA
notes: human MDM4 (HDM4); also called FLAG-M4; HDM4; source: insect cell expression, purified as described previously [13]; not shown: FLAG, N-terminal, kept
[1]
  binding result: binds
[2]
  binding result: binds
